{"source": "paper PMC4021431", "about": "“Identification of glutathione (GSH)-independent glyoxalase III from Schizosaccharomyces pombe” (BMC Evolutionary Biology, 2014)", "proteins": {"B1": {"name": "ScHsp31 (Saccharomyces cerevisiae S288C) (protein)", "chain": "MAPKKVLLALTSYNDVFYSDGAKTGVFVVEALHPFNTFRKEGFEVDFVSETGKFGWDEHSLAKDFLNGQDETDFKNKDSDFNKTLAKIKTPKEVNADDYQIFFASAGHGTLFDYPKAKDLQDIASEIYANGGVVAAVCHGPAIFDGLTDKKTGRPLIEGKSITGFTDVGETILGVDSILKAKNLATVEDVAKKYGAKYLAPVGPWDDYSITDGRLVTGVNPASAHSTAVRSIDALKN", "notes": "full length (237 aa), C-terminal His6 (pET28a), E. coli BL21(DE3), Ni-NTA"}, "B2": {"name": "Hsp3101 (Schizosaccharomyces pombe 972h-) (protein)", "chain": "MASEGKVLLVASSYYGPFYPDGMNTGVHFAELLIPYQVFREAGYEVQLTSETGKCKFDDHSIKKSALGEVERDAFDNKDNEFWYALKDIKPADKINYKEFCIMFIAGGHAAMFDLPHATNLQTLAQQIYASNGVLAAVCHGPVMLPFVDDTKSPEGRSVVYGKKVTAFNSTGELVMGVSSALRERNMQDLNSLFREAGAEFVDPPTPMSDFTQVDGRIVTGVNPMSAKSTAEAAIKVSQSLRKT", "notes": "full length (244 aa), C-terminal His6 (pET28a), E. coli BL21(DE3), Ni-NTA"}, "B3": {"name": "SpDJ-1 (Schizosaccharomyces pombe 972h-) (protein)", "chain": "MVKVCLFVADGTDEIEFSAPWGIFKRAEIPIDSVYVGENKDRLVKMSRDVEMYANRSYKEIPSADDFAKQYDIAIIPGGGLGAKTLSTTPFVQQVVKEFYKKPNKWIGMICAGTLTAKTSGLPNKQITGHPSVRGQLEEGGYKYLDQPVVLEENLITSQGPGTAMLFGLKLLEQVASKDKYNAVYKSLSMP", "notes": "full length (191 aa), C-terminal His6 (pET28a, NcoI/XhoI), E. coli BL21(DE3), Ni-NTA"}, "B4": {"name": "SpDJ-1 (Schizosaccharomyces pombe 972h-; H130A) (protein)", "chain": "MVKVCLFVADGTDEIEFSAPWGIFKRAEIPIDSVYVGENKDRLVKMSRDVEMYANRSYKEIPSADDFAKQYDIAIIPGGGLGAKTLSTTPFVQQVVKEFYKKPNKWIGMICAGTLTAKTSGLPNKQITGAPSVRGQLEEGGYKYLDQPVVLEENLITSQGPGTAMLFGLKLLEQVASKDKYNAVYKSLSMP", "notes": "as for B3"}, "B5": {"name": "Hsp3102 (Schizosaccharomyces pombe 972h-) (protein)", "chain": "MSIAKGKNALLVASSYYGPFYPDGKNTGVHFSELLIPYNVFKKAGFNVQFVSENGSYKFDDHSIEESKLGDFERKVFNDKNDDFWTNLNNMKKASDIVGKDYQLLFVAGGHAAMFDLPKATNLQAVAREVFTNGGVLSAVCHGPVLLANVKNPQSVEGKTVVYHKHVTAFNKAGEEKMGVMDELKKRGMKSLNEIFAEAGATFIDPPNPNVNFTQIDGKIVTGVNPQSAKSTAEAAVSAL", "notes": "full length (240 aa), C-terminal His tag (pESP3), expressed in S. pombe yAS56, Ni-NTA"}}, "assay_in_all_cases": "DNPH colorimetric glyoxalase III assay, A540", "key": {"[1]": {"substrate": "CC(=O)C=O", "assay_type": "biochemical, Saccharomyces cerevisiae", "conditions": "GSH-independent, 100 mM Na3PO4 pH 6.8, 45 °C", "text": "DNPH colorimetric glyoxalase III assay, A540 on ScHsp31"}, "[2]": {"substrate": "CC(=O)C=O", "assay_type": "biochemical, Schizosaccharomyces pombe", "conditions": "GSH-independent, 100 mM Na3PO4 pH 6.8, 45 °C", "text": "DNPH colorimetric glyoxalase III assay, A540 on Hsp3101"}, "[3]": {"substrate": "CC(=O)C=O", "assay_type": "biochemical, Schizosaccharomyces pombe", "conditions": "GSH-independent, 100 mM Na3PO4 pH 6.8, 45 °C, MG 0.5-3 mM (below Km)", "text": "DNPH colorimetric glyoxalase III assay, A540 on SpDJ-1"}, "[4]": {"substrate": "CC(=O)C=O", "assay_type": "biochemical, Schizosaccharomyces pombe", "conditions": "GSH-independent, 100 mM Na3PO4 pH 6.8, 45 °C", "text": "DNPH colorimetric glyoxalase III assay, A540 on Hsp3102", "remark": "listed apart in the source"}}, "data": [{"protein": "B1", "values": [{"measurement": "Km", "setting": "[1]", "value": 1500, "unit": "µM"}, {"measurement": "kcat", "setting": "[1]", "value": 1.25, "unit": "s⁻¹"}, {"measurement": "kcat/Km", "setting": "[1]", "value": 850, "unit": "M⁻¹ s⁻¹"}]}, {"protein": "B2", "values": [{"measurement": "Km", "setting": "[2]", "value": 1400, "unit": "µM"}, {"measurement": "kcat", "setting": "[2]", "value": 0.518, "unit": "s⁻¹"}, {"measurement": "kcat/Km", "setting": "[2]", "value": 383, "unit": "M⁻¹ s⁻¹"}]}, {"protein": "B3", "values": [{"measurement": "Km", "setting": "[3]", "value": 10800, "unit": "µM"}, {"measurement": "kcat", "setting": "[3]", "value": 1.43, "unit": "s⁻¹"}, {"measurement": "kcat/Km", "setting": "[3]", "value": 132, "unit": "M⁻¹ s⁻¹"}]}, {"protein": "B4", "values": [{"measurement": "Km", "setting": "[3]", "value": 37300, "unit": "µM"}, {"measurement": "kcat", "setting": "[3]", "value": 1.09, "unit": "s⁻¹"}, {"measurement": "kcat/Km", "setting": "[3]", "value": 30, "unit": "M⁻¹ s⁻¹"}]}, {"protein": "B5", "values": [{"measurement": "Km", "setting": "[4]", "value": 2700, "unit": "µM"}, {"measurement": "kcat", "setting": "[4]", "value": 0.967, "unit": "s⁻¹"}, {"measurement": "kcat/Km", "setting": "[4]", "value": 350, "unit": "M⁻¹ s⁻¹"}]}]}
